Here are results for three molecules from patent publication US20230227527A1 (published 2023).

Where a chain is given by its changes, count along the chain named.

Experiment [1] concerns the target T1, EBV LMP2 peptide on HLA-A*02:01 (human).
T1 peptide: CLGGLLTMV
The experiment is described as follows: intracellular IFN-gamma; peptide titration on APCs, E:T 1:1, overnight; a different experiment, FIG. 6G; full-length, on cells.

Experiment [2] deals with T2, peptide on HLA-A*02:01 (human).
T2 peptide: SLGGLLTMV
Described as above.

For experiment [3], the target named is T1, EBV LMP2 peptide on HLA-A*02:01. Description: intracellular IFN-gamma; peptide titration on APCs, E:T 1:1, overnight; FIG. 6F; full-length, on cells.
For experiment [4], the target named is T2, peptide on HLA-A*02:01. Described as above.
The target of experiment [5] is EBV LMP2 peptide on HLA-A11 (human). Description: intracellular IFN-gamma; peptide titration on K562-A11, E:T 1:1, overnight; FIG. 9; full-length, on cells. As to conditions: chains Valpha:Vbeta.

B1: L208 (TCR, V domains shown)
Valpha: KQEVTQIPAALSVPEGENLVLNCSFTDSAIYNLQWFRQDPGKGLTSLLLIQSSQREQTSGRLNASLDKSSGRSTLYIAASQPGDSATYLCAVLMDSNYQLIWGAGTKLIIKP
Vbeta: DAGITQSPRYKITETGRQVTLMCHQTWSHSYMFWYRQDLGHGLRLIYYSAAADITDKGEVPDGYVVSRSKTENFPLTLESATRSQTSVYFCASSEDGMNTEAFFGQGTRLTVV
As to B1, the EC50 of peptide in experiment [1] turned out to be 0.261 µg/mL; in the experiment with peptide on HLA-A*02:01 [2], 0.125 µg/mL; in experiment [3], 0.0392 µg/mL; in the experiment with peptide on HLA-A*02:01 [4], 0.0183 µg/mL.

B2: L11-3 (protein)
chain 1: GQQVMQIPQYQHVQEGEDFTTYCNSSTTLSNIQWYKQRPGGHPVFLIQLVKSGEVKKQKRLTFQFGEAKKNSSLHITATQTTDVGTYFCADPDGLIFGQGTELSVKP
chain 2: DAGVIQSPRHEVTEMGQEVTLRCKPISGHNSLFWYRQTMMRGLELLIYFNNNVPIDDSGMPEDRFSAKMPNASFSTLKIQPSEPRDSAVYFCASSLGAGAGYGYTFGSGTRLTVV
For the molecule B2, in experiment [5], the EC50 of peptide stood at 0.3 nM.

B3: L11-6 (protein)
chain 1: GIQVEQSPPDLILQEGANSTLRCNFSDSVNNLQWFHQNPWGQLINLFYIPSGTKQNGRLSATTVATERYSLLYISSSQTTDSGVYFCAVDGGNKLVFGAGTILRVKS
chain 2: B2 chain 2 with A100S, Y102W, G103E, Y104Q, T105Y, S108P, V115T
As for B3, in experiment [5], the EC50 of peptide came to 2 nM.
